Experiment [1] has as its target T1, amphyphisin SH3 (AMPH_HUMAN), P49418.
T1 chain: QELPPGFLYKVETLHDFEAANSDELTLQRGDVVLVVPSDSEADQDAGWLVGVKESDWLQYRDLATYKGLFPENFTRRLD
Put plainly: SPOT array.

Experiment [2] has as its target endophilin SH3 (SH3G2_HUMAN), Q99962. The experiment is described as follows: SPOT array.

Consider 38 molecules from PMC314469, “Protein Interaction Networks by Proteome Peptide Scanning” (PLoS Biology, 2004).

B1: Q96LW7 145-159 (peptide)
chain: ASAPPQRPPSGPEG
For the molecule B1, the normalised SPOT signal, Boehringer light units (BLU); mean over the file's lines of this peptide in experiment [1] turned out to be 21.2; in experiment [2], 435.

B2: Q9P2D6 185-198 (peptide)
chain: PLISFPRPVKTTWL
For B2, the normalised SPOT signal, Boehringer light units (BLU); mean over the file's lines of this peptide in experiment [1] was determined as 201; in experiment [2] it was 172.

B3: AAH27972 518-532 (peptide)
chain: PPARPPRPPYPPRR
As to B3, the normalised SPOT signal, Boehringer light units (BLU); mean over the file's lines of this peptide in experiment [1] worked out at 16000; in experiment [2] it was 20000.

B4: O14545 178-191 (peptide)
chain: PMRLPRRPLRAFES
As for B4, the figures for the normalised SPOT signal, Boehringer light units (BLU); mean over the file's lines of this peptide in experiment [1] and in experiment [2] were 5210 and 1200, respectively.

B5: Q14123 658-671 (peptide)
chain: PLRHFKRPAYASSS
Turning to B5, the normalised SPOT signal, Boehringer light units (BLU); mean over the file's lines of this peptide came out at 28.7 in experiment [1] and 9.5 in experiment [2].

B6: P53675 58-71 (peptide)
chain: PMAPIRRPISAESA
B6: the normalised SPOT signal, Boehringer light units (BLU); mean over the file's lines of this peptide in experiment [1] was determined as 1010; in experiment [2], 464.

B7: P56730 61-74 (peptide)
chain: PLPRFPRPPRALPA
On to B7, for which the normalised SPOT signal, Boehringer light units (BLU); mean over the file's lines of this peptide in experiment [1] was determined as 1910; in experiment [2], 3490.

B8: Q9NRZ5 298-311 (peptide)
chain: PMVPPRRPWTLVNW
As to B8, the figures for the normalised SPOT signal, Boehringer light units (BLU); mean over the file's lines of this peptide in experiment [1] and in experiment [2] were 2870 and 648, respectively.

B9: Q9Y6X6 669-683 (peptide)
chain: PNLLPHRPPLLVFP
For B9, the normalised SPOT signal, Boehringer light units (BLU); mean over the file's lines of this peptide stood at 70.2 in experiment [1] and 191 in experiment [2].

B10: Q9Y2W2 415-429 (peptide)
chain: PPAPPLRPPGPPTG
With B10, the figures for the normalised SPOT signal, Boehringer light units (BLU); mean over the file's lines of this peptide in experiment [1] and in experiment [2] were 356 and 3740, respectively.

B11: Q9HCK6 1105-1118 (peptide)
chain: PPASPRRPRSFKSK
For the molecule B11, the normalised SPOT signal, Boehringer light units (BLU); mean over the file's lines of this peptide was determined as 58.1 in experiment [1] and 272 in experiment [2].

B12: Q9ULW0 418-432 (peptide)
chain: PKKPPVKPPTEPIG
Regarding B12, the normalised SPOT signal, Boehringer light units (BLU); mean over the file's lines of this peptide came to 37.6 in experiment [1] and 64.2 in experiment [2].

B13: AAM49716 571-585 (peptide)
chain: PKISPQKPPRKDME
As to B13, the normalised SPOT signal, Boehringer light units (BLU); mean over the file's lines of this peptide came to 2910 in experiment [1] and 487 in experiment [2].

B14: Q9H3X8 431-444 (peptide)
chain: PLPAPRRPKVNSIL
Consider B14, for which the normalised SPOT signal, Boehringer light units (BLU); mean over the file's lines of this peptide in experiment [1] was 4680; in experiment [2], 744.

B15: Q96BU4 174-187 (peptide)
chain: PPAPLRRPLAVLHA
Turning to B15, the normalised SPOT signal, Boehringer light units (BLU); mean over the file's lines of this peptide was determined as 315 in experiment [1] and 453 in experiment [2].

B16: P35443 278-292 (peptide)
chain: PPAPPTRPPRRSDS
As for B16, the normalised SPOT signal, Boehringer light units (BLU); mean over the file's lines of this peptide in experiment [1] stood at 20500; in experiment [2], 12100.

B17: O94991 899-912 (peptide)
chain: PNYDLRRPHQYLHP
Turning to B17, the normalised SPOT signal, Boehringer light units (BLU); mean over the file's lines of this peptide came out at 24.6 in experiment [1] and 0 in experiment [2].

B18: Q9NPB9 231-244 (peptide)
chain: PNIKISRPLKVLLT
Consider B18, for which the normalised SPOT signal, Boehringer light units (BLU); mean over the file's lines of this peptide in experiment [1] was found to be 91.3; in experiment [2], 155.

B19: Q9UEI9 3-16 (peptide)
chain: ASAPPRRPRPPPQS
B19: the normalised SPOT signal, Boehringer light units (BLU); mean over the file's lines of this peptide in experiment [1] was determined as 914; in experiment [2] it was 1320.

B20: Q14669 1006-1019 (peptide)
chain: PKRGPRRPKYSPPR
Consider B20, for which the normalised SPOT signal, Boehringer light units (BLU); mean over the file's lines of this peptide in experiment [1] was 12.1; in experiment [2], 83.3.

B21: AAH30815 33-47 (peptide)
chain: PPALPPKPPKPTTV
On to B21, for which the normalised SPOT signal, Boehringer light units (BLU); mean over the file's lines of this peptide was determined as 77.9 in experiment [1] and 3470 in experiment [2].

B22: Q9UEF7 3-16 (peptide)
chain: ASAPPRRPRPPPPS
As for B22, the normalised SPOT signal, Boehringer light units (BLU); mean over the file's lines of this peptide amounted to 230 in experiment [1] and 9160 in experiment [2].

B23: O95450 1177-1190 (peptide)
chain: PNLIPRRPSPYEKT
Turning to B23, the normalised SPOT signal, Boehringer light units (BLU); mean over the file's lines of this peptide in experiment [1] is 131; in experiment [2], 398.

B24: Q9HA84 52-65 (peptide)
chain: PKTPPRRPVPVADS
As for B24, the normalised SPOT signal, Boehringer light units (BLU); mean over the file's lines of this peptide turned out to be 314 in experiment [1] and 61.3 in experiment [2].

B25: Q9HCF2 2-15 (peptide)
chain: PNATPRRPLQELRR
On to B25, for which the normalised SPOT signal, Boehringer light units (BLU); mean over the file's lines of this peptide came out at 405 in experiment [1] and 1570 in experiment [2].

B26: P11161 316-329 (peptide)
chain: PLRPILRPRKYPNR
As to B26, the values for the normalised SPOT signal, Boehringer light units (BLU); mean over the file's lines of this peptide in experiment [1] and in experiment [2] were 2100 and 4850, respectively.

B27: Q8TEL4 110-124 (peptide)
chain: PPEKPPRPPRPLHL
Regarding B27, the normalised SPOT signal, Boehringer light units (BLU); mean over the file's lines of this peptide in experiment [1] is 14400; in experiment [2] it was 29300.

B28: O95822 14-28 (peptide)
chain: PLRLPPRPPGPRLA
Consider B28, for which the figures for the normalised SPOT signal, Boehringer light units (BLU); mean over the file's lines of this peptide in experiment [1] and in experiment [2] were 4940 and 18500, respectively.

B29: Q92932 113-126 (peptide)
chain: PKTYLRRPEASSPA
For B29, the values for the normalised SPOT signal, Boehringer light units (BLU); mean over the file's lines of this peptide in experiment [1] and in experiment [2] were 21.6 and 60.7, respectively.

B30: Q9H6X0 119-132 (peptide)
chain: PLLPPKRPLSSSHE
On to B30, for which the normalised SPOT signal, Boehringer light units (BLU); mean over the file's lines of this peptide in experiment [1] worked out at 680; in experiment [2] it was 10400.

B31: Q92569 33-47 (peptide)
chain: PPALPPKPPKPMTS
Regarding B31, the normalised SPOT signal, Boehringer light units (BLU); mean over the file's lines of this peptide was 88.3 in experiment [1] and 2510 in experiment [2].

B32: O00253 27-40 (peptide)
chain: PMEGIRRPDQALLP
As for B32, the normalised SPOT signal, Boehringer light units (BLU); mean over the file's lines of this peptide came out at 36 in experiment [1] and 66 in experiment [2].

B33: P81489 133-147 (peptide)
chain: PPGKPERPPPQGGD
As to B33, the figures for the normalised SPOT signal, Boehringer light units (BLU); mean over the file's lines of this peptide in experiment [1] and in experiment [2] were 61.4 and 312, respectively.

B34: P52849 207-220 (peptide)
chain: PLLHLTRPSRLEPG
Regarding B34, the normalised SPOT signal, Boehringer light units (BLU); mean over the file's lines of this peptide in experiment [1] stood at 1780; in experiment [2], 1220.

B35: O60331 5-18 (peptide)
chain: ARVPLGRPRRRPRA
In the case of B35, the normalised SPOT signal, Boehringer light units (BLU); mean over the file's lines of this peptide came out at 421 in experiment [1] and 200 in experiment [2].

B36: Q9HA07 306-319 (peptide)
chain: PKSVLKRPVTSEEL
In the case of B36, the normalised SPOT signal, Boehringer light units (BLU); mean over the file's lines of this peptide was 37.6 in experiment [1] and 48.9 in experiment [2].

B37: O00459 298-312 (peptide)
chain: PPALPPKPPKAKPA
With B37, the results for the normalised SPOT signal, Boehringer light units (BLU); mean over the file's lines of this peptide in experiment [1] and in experiment [2] were 124 and 4320, respectively.

B38: O60543 29-42 (peptide)
chain: PLMHPARPFRVSNH
In the case of B38, the normalised SPOT signal, Boehringer light units (BLU); mean over the file's lines of this peptide in experiment [1] was 8020; in experiment [2], 15800.
